Results on 13 molecules are retold here after US20240002497A1 (Merck Sharp & Dohme, published 2024).

Substitutions are numbered along the chain they refer to. Numbers in names are those of the source. Like-named read-outs stand apart in the source and are kept apart here.

Test [1] concerns the target T1, huNav1.7α+β1 (human, UniProt Q15858 1-1988; Q07699 19-218).
T1 construct: also called huNav1.7-beta1; HEKa/β1
Description: binding FACS, HEKa/β1 cells.

Test [2] concerns the target T2, huNav1.7α (human, UniProt Q15858 1-1988).
T2 construct: HEK cells expressing the α subunit alone; also called HEKa; HEK huNav1.7α
Description: binding FACS, HEKa cells.

Another test addresses rhNav1.7α (rhesus monkey, UniProt Q15858 1-1988 (human entry)). The test is described as follows: cell-based or functional assay.
Test [3] deals with T1, huNav1.7α+β1. Description: cell-based or functional assay.
For test [4], the target named is T3, rhNav1.7α+β1-β2-β3 (rhesus monkey α subunit with human β …). Description: cell-based or functional assay.
For test [5], the target named is T2, huNav1.7α. Description: cell-based or functional assay.
The target of test [6] is T3, rhNav1.7α+β1-β2-β3. The test is described as follows: binding FACS, CHO FlpIn cells.
For the next test, the target named is T4, huNav157chim14 (human).
T4 construct: HEK Flp-In cells; also called huNav157 chimera 14
Description: binding FACS, HEK Flp-In.

Test [7] addresses T5, huNav1.7α + β1 (human).
T5 construct: HEK293 cells; also called huNav1.7-beta1; huNav1.7-β1
Description: binding FACS, HEK.

Test [8] addresses T6, huNav1.7α (human, UniProt Q15858 1-1988).
T6 construct: HEK cells expressing the α subunit without β subunits; also called huNav1.7 (alpha-subunit); Human Nav1.7α
The test is described as follows: binding FACS, HEK.

Another test concerns the target T7, rhNav1.7α + β1-β2-β3 (rhesus monkey).
T7 construct: also called rhNav1.7-beta1-beta2-beta3; rhNav1.7-β1-β2-β3
The test is described as follows: competition FACS vs EC40 of F103275B05(N93R), CHO FlpIn.

Test [9] concerns the target T8, huNav1.7α + β1-β2-β3 (human, UniProt Q15858 1-1988; A5A6L6 19-218; O60939 30-215; Q2KI11 23-215).
T8 construct: also called huNav1.7-beta1-beta2-beta3; huNav1.7-β1-β2-β3
Description: competition FACS vs EC25 of F103275B05(N93R), HEK FlpIn.

The target of test [10] is T5, huNav1.7α + β1. The test is described as follows: competition FACS vs EC25 of F103275B05(N93R), HEK.
Test [11] addresses T6, huNav1.7α. The test is described as follows: competition FACS vs EC25 of F103275B05(N93R), HEK.
In test [12] the target is T8, huNav1.7α + β1-β2-β3. The test is described as follows: competition FACS vs EC25 of F103275B05(N93R), CHO FlpIn.
The target in a further test is T9, huNav1.7α+β1-β2-β3 (human, UniProt Q15858 1-1988; Q07699 19-218; O60939 30-215; Q9NY72 23-215).
T9 construct: 5N11S variant; also called huNav1.7-beta1-beta2-beta3; huNav1.7α+Navβ1-Navβ2-Navβ3
Description: binding FACS, HEK FlpIn cells.

Test [13] has as its target T1, huNav1.7α+β1. The test is described as follows: binding FACS, HEKa/β1 cells. In outline:
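Cells are first suspended in FACS buffer at 1×10^5 per well. Next, FLAG3-tagged ISVD is added for 30 minutes at 4° C, and binding is then detected with murine anti-Flag. Finally, samples go into 1 μg/mL propidium iodide before flow cytometry.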
This is another data set of the same source.

The target of test [14] is T2, huNav1.7α. The test is described as follows: binding FACS, HEKa cells. Here is the method: Binding of the ISVDs to cell-expressed Nav1.7α was detected via murine anti-Flag (Sigma, catalog #F1804). Briefly, cells were resuspended in FACS buffer (PBS, 10% FBS, NaN₃) and transferred to a 96-well V-bottom plate at 1×10^5 cells/well. Purified FLAG3-tagged ISVD was diluted in FACS buffer and added to the cells for 30 minutes at 4° C. […] Prior to the read-out, the samples were resuspended in 1 μg/mL propidium iodide (Sigma, catalog #P4170) to exclude dead cells. Between each step, the cells were centrifuged for 5 minutes at 200 grams and washed with 100 μL/well FACS buffer.
The source holds these as a separate data set.

B1: F010300659 (VHH)
VHH: EVQLVESGGGLVQPGGSLRLSCAASGPVFNINSMAWYRRAPGKQRELVAYSTPGWDWNYADSVKGRFTISRDNAKRVYLQMNSLTPEDTAVYYCRWLLQPSIYDISRTYWGQGTLVTVSS
notes: also called F0103275B05(S27P, I28V, S50Y, N53P, G55W, S56D, T57W, N93R, A94W)+FLAG3-HIS6
Turning to B1, the EC50 (commonly the concentration at which the effect is half-maximal) with huNav1.7α+β1 [1] was 27 nM; with huNav1.7α [2] it was 9.7 nM; with rhNav1.7α+β1-β2-β3 [6] it was 55 nM. Further, the “2-pulse IC50 [M], P1” value with rhNav1.7α and with huNav1.7α [5] was 1e-06 M each time. Besides, the “2-pulse IC50 [M], P2” value stood at 7e-07 M in the test with rhNav1.7α and 8e-07 M in the test with huNav1.7α [5]. The “single pulse IC50” value with huNav1.7α+β1 [3] amounted to 85 nM; with rhNav1.7α+β1-β2-β3 [4], 180 nM.

B2: F010300702 (bispecific antibody, V domains shown, not shown: small tags and cut ends)
VH: B1 VHH with P27S, V28I, Y50S, P53N, W55G, D56S, W57T, W96A
notes: also called F010300702 (n = 15); control bivalent ISVD
In the case of B2, the MFI in the test with huNav157chim14 is 27700 MFI.

B3: F010300900 (VHH)
VHH: B1 VHH with S33R, Y50S, W55G, W57T, T108I
notes: vs F0103275B05: S27P, I28V, S33R, N53P, S56D, N93R, A94W, T101I
For B3, the EC50 with huNav1.7α+β1 [1] worked out at 70 nM; with huNav1.7α [2], 20 nM; with rhNav1.7α+β1-β2-β3 [6], 25 nM. For the same molecule, the “single pulse IC50” value is 200 nM with huNav1.7α+β1 [3] and 36 nM with rhNav1.7α+β1-β2-β3 [4].

B4: F0103275B05-FLAG3 + HIS6 (VHH)
VHH: B1 VHH with P27S, V28I, Y50S, P53N, W55G, D56S, W57T, R95N, W96A
notes: also called F0103275B05 (parental)-FLAG-HIS6
In the case of B4, the EC50 in the test with huNav1.7α + β1 [7] and in the test with huNav1.7α [8] was 13 nM throughout.

B5: F010300990 (VHH)
VHH: B1 VHH with S33R, W55G, D56S, W57T, R95N, W96A, T108I
notes: vs F0103275B05: S27P, I28V, S33R, S50Y, N53P, T101I
With B5, the figures for the concentration giving a half-maximal response (EC50) with huNav1.7α+β1 [1], with huNav1.7α [2] and with rhNav1.7α+β1-β2-β3 [6] were 65 nM, 4.3 nM and 38 nM, respectively. The results for the “single pulse IC50” value with huNav1.7α+β1 [3] and with rhNav1.7α+β1-β2-β3 [4] were 250 nM and 100 nM, respectively.

B6: F010300948 (VHH)
VHH: B1 VHH with S33R, Y50S, W55G, D56S, W57T, T108I
notes: vs F0103275B05: S27P, I28V, S33R, N53P, N93R, A94W, T101I
As to B6, the results for the EC50 with huNav1.7α+β1 [1], with huNav1.7α [2] and with rhNav1.7α+β1-β2-β3 [6] were 68 nM, 69 nM and 20 nM, respectively. Moreover, the “single pulse IC50” value with huNav1.7α+β1 [3] turned out to be 320 nM; with rhNav1.7α+β1-β2-β3 [4], 58 nM.

B7: F010302380 (bispecific antibody)
chain: DVQLVESGGGLVQPGGSLRLSCAASGSIFNINSMAWYRRAPGKQRELVASSTNGGSTNYADSVKGRFTISRDNAKRVYLQMNSLTPEDTAVYYCRALLQPSIYDISRTYWGQGTLVTVSSGGGGSGGGGSGGGGSGGGGSGGGGSGGGGSGGGGSGGGGSGGGGSGGGGSEVQLVESGGGLVQAGGSLRLSCVTSGRTSDLSTMNWFRQAPGKEREFVARITRRGSTYYAESVKERFIISRDNAKNTVYLQMNSLKPEDTANYYCTAASEMGYHYRGQGTQVTVSSGAADYKDHDGDYKDHDIDYKDDDDKGAAHHHHHH
notes: also called F0103275B05(E1D, N93R)-50GS-F0103505D08(L108Q)-FLAG3-HIS6
Consider B7, for which the IC50 (commonly the concentration that gives 50% inhibition) with rhNav1.7α + β1-β2-β3 came out at 2 nM; in the test with huNav1.7α + β1-β2-β3 [9], 8.7 nM; in the test with huNav1.7α + β1 [10], 110 nM; with huNav1.7α [11] it was 67 nM; in the test with huNav1.7α + β1-β2-β3 [12] it was 8.1 nM.

B8: F010300191 (bispecific antibody)
chain: EVQLVESGGGLVQPGGSLRLSCAASGSIFNINSMAWYRRAPGKQRELVASSTNGGSTNYADSVKGRFTISRDNAKRVYLQMNSLTPEDTAVYYCNALLQPSIYDISRTYWGQGTLVTVSSGGGGSGGGGSGGGGSGGGGSGGGGSGGGGSGGGGSGGGGSGGGGSGGGGSEVQLVESGGGLVQAGGSLRLSCAASGGTGRRYAMGWFRQAPGKEREIVAAIRWSAMTYYADDGKGRFTISRDNAKNTVYLQMNSLKPEDTAIYYCAYTWDYFKYDQVRAYRGWGQGTLVTVSSGAADYKDHDGDYKDHDIDYKDDDDKGAAHHHHHH
notes: also called F0103275B05-50GS-F0103240B04-FLAG3-HIS6
For B8, the IC50 in the test with huNav1.7α + β1-β2-β3 [9] was found to be 0.1 nM; in the test with huNav1.7α + β1 [10] it was 110 nM; with huNav1.7α [11], 67 nM.

B9: F010300534 (VHH)
VHH: EVQLVESGGGLVQPGGSLRLSCAASGMLFNANTQGWYRQAPGKQRELVAFIFSGGYVNYVDSVKGRFTISRDNAKRTMYLQMNSLKPEDSAIYYCSLSRYLGQGTLVTVSS
notes: vs F0103265A11: T57V
In the test with huNav1.7α+β1-β2-β3, B9 showed an EC50 of 72 nM. Further, in the test with huNav1.7α+β1 [13], the “Bmax relative to '535” value is 62% and the concentration for a half-maximal effect (EC50) came to 11 nM. The binding result with huNav1.7α [14] is listed as “no binding”.

B10: F010301463 (VHH)
VHH: B9 VHH with A31R, V57T, V60N, S96A, L101Q
notes: vs F0103265A11: A31R, V60N, S93A, L103Q
Consider B10, for which the values for the EC50 in the test with huNav1.7α+β1-β2-β3 and in the test with huNav1.7α+β1 [13] were 4.3 nM and 2.5 nM, respectively. Besides, the “Bmax relative to '535” value with huNav1.7α+β1 [13] was 120%.

B11: F010300536 (VHH)
VHH: B9 VHH with V57T, N58T
notes: vs F0103265A11: N58T
For the molecule B11, the figures for the EC50 with huNav1.7α+β1-β2-β3, with huNav1.7α+β1 [13] and with huNav1.7α [14] were 27 nM, 9 nM and 660 nM, respectively. In addition, the “Bmax relative to '535” value with huNav1.7α+β1 [13] stood at 77%.

B12: F010301458 (VHH)
VHH: B9 VHH with A31R, Y56W, V57T, V60N, S96A, L101Q
notes: vs F0103265A11: A31R, Y56W, V60N, S93A, L103Q
For B12, the EC50 was found to be 4.1 nM with huNav1.7α+β1-β2-β3 and 2.2 nM with huNav1.7α+β1 [13]. The “Bmax relative to '535” value with huNav1.7α+β1 [13] worked out at 120%.

B13: F010300535 (VHH)
VHH: B9 VHH with S53W, V57T
notes: vs F0103265A11: S53W
B13: the values for the EC50 in the test with huNav1.7α+β1-β2-β3, with huNav1.7α+β1 [13] and with huNav1.7α [14] were 16 nM, 5.5 nM and 720 nM, respectively. In addition, the “Bmax relative to '535” value with huNav1.7α+β1 [13] came to 100%.
